Molecular target: the molecule itself
Assay: native gel or EMSA; native PAGE of the purified proteins in solution; multiple bands / broad smear taken as polydisperse oligomers; gel conditions not given

B1: C-214-HrpZPss (C-terminal fragment of HrpZPss with 214 amino acids) (domain or fragment)
chain: LTKQDGGTSFSEDDMPMLNKIAQFMDDNPAQFPKPDSGSWVNELKEDNFLDGDETAAFRSALDIIGQQLGNQQSDAGSLAGTGGGLGTPSSFSNNSSVMGDPLIDANTGPGDSGNTRGEAGQLIGELIDRGLQSVLAGGGLGTPVNTPQTGTSANGGQSAQDLDQLLGGLLLKGLEATLKDAGQTGTDVQSSAAQIATLLVSTLLQGTRNQAAA
notes: Harpin HrpZ of Pseudomonas syringae pv. syringae, C-terminal 214 residues (N-terminal 127 amino acids deleted); Cloned under the NdeI and EcoRI sites of pET 28a, which probably adds an N-terminal His6 tag with a thrombin site; Forms polydisperse oligomers; the number of copies is not defined; also called C-terminal 214 residues of HrpZPss; source: E. coli BL21 (DE3), pET 28a, purified (Ni-NTA, …)
binding result: binds

B2: HrpZPss (harpin HrpZ from Pseudomonas syringae pv. syringae), full length (natural protein)
chain: MQSLSLNSSSLQTPAMALVLVRPEAETTGSTSSKALQEVVVKLAEELMRNGQLDDSSPLGKLLAKSMAADGKAGGGIEDVIAALDKLIHEKLGDNFGASADSASGTGQQDLMTQVLNGLAKSMLDDLLTKQDGGTSFSEDDMPMLNKIAQFMDDNPAQFPKPDSGSWVNELKEDNFLDGDETAAFRSALDIIGQQLGNQQSDAGSLAGTGGGLGTPSSFSNNSSVMGDPLIDANTGPGDSGNTRGEAGQLIGELIDRGLQSVLAGGGLGTPVNTPQTGTSANGGQSAQDLDQLLGGLLLKGLEATLKDAGQTGTDVQSSAAQIATLLVSTLLQGTRNQAAA
notes: Harpin HrpZ of Pseudomonas syringae pv. syringae, 34.7 kDa, 341 amino acids, full length; Forms polydisperse oligomers; the number of copies is not defined; also called full length HrpZPss; native HrpZPss; source: expressed and purified as described earlier [15]
binding result: binds

Reference: paper PMC4264689, “Oligomerization, Conformational Stability and Thermal Unfolding of Harpin, HrpZPss and Its Hypersensitive Response-Inducing C-Terminal Fragment, C-214-HrpZPss” (PLoS ONE, 2014)
